# Measurements taken from the MegaScale stability set (Tsuboyama et al. 2023).
# B1: HEEH_KT_rd6_0790 (parent)
# chain: SEEEEEEWRRAKERGEEIIILGILWKPNDEEAERRIKEALRRV
# Variants of: B1
# Experiment: folding stability dG (cDNA display proteolysis); higher = more stable
# Conditions: PBS, room temperature
row,Variant,folding stability dG [kcal/mol]
1,R34S,2.02
2,R34G,1.63
3,R34D,1.64
4,R34P,0.726
5,R34N,2
6,R34L,2.06
7,R34Q,2.14
8,R34C,2.5
9,R34W,1.92
10,R34V,1.87
11,R34T,1.9
12,K26M,1.7
13,K26V,2.06
14,K26G,1.52
15,K26S,1.99
16,K26T,2.12
17,K26H,1.46
18,K26N,1.6
19,E4Q,2.2
20,E4D,2.17
21,E4V,2.71
22,E4S,2.21
23,E4P,2.5
24,E4W,3.35

row,Variant,folding stability dG [kcal/mol]
1,E4K,1.92
2,A39H,1.38
3,A39I,1.81
4,A39N,1.01
5,A39E,1.53
6,A39V,1.6
7,A39D,0.764
8,A39W,1.7
9,A39Y,1.56
10,A39S,1.26
11,A39T,1.31
12,A39Q,1.6
13,E17G,1.53
14,E17W,2.29
15,E17R,1.7
16,E17I,1.94
17,E17N,1.95
18,E17S,2.18
19,E17M,2.02
20,E17Y,1.91
21,E17C,2.35
22,K37I,2.56
23,K37G,1.43
24,K37D,1.93

row,Variant,folding stability dG [kcal/mol]
1,K37Y,2.08
2,K37E,2.49
3,K37W,2.3
4,K37R,2.37
5,K37F,2.11
6,S1Y,2.74
7,S1D,2.12
8,S1H,2.67
9,S1M,2.5
10,S1I,2.61
11,S1A,2.38
12,S1L,2.55
13,S1G,2.63
14,E2Q,2.29
15,E2M,2.45
16,E2P,2.21
17,E2V,2.33
18,E2A,2.2
19,E2W,2.54
20,E2R,2.39
21,G15R,1.66
22,G15Q,1.81
23,G15L,1.6
24,G15C,2.43

row,Variant,folding stability dG [kcal/mol]
1,G15W,1.68
2,G15Y,1.44
3,G15D,1.25
4,G15E,1.5
5,G15F,1.57
6,E38S,1.67
7,E38V,1.46
8,E38G,1.46
9,E38L,1.39
10,E38I,1.91
11,E38T,1.41
12,E38M,1.47
13,E38N,1.61
14,E38W,1.02
15,W25H,0.716
16,W25G,0.809
17,W25V,0.885
18,W25N,0.423
19,W25L,0.939
20,W25S,0.662
21,W25Y,1.25
22,W25Q,0.568
23,V43I,2.31
24,V43Y,2.38

row,Variant,folding stability dG [kcal/mol]
1,V43L,2.79
2,V43W,2.45
3,V43S,2.21
4,V43N,1.86
5,V43G,1.84
6,I19S,1.52
7,I19Q,1.69
8,I19H,1.43
9,I19P,0.976
10,I19F,2.08
11,I19K,1.49
12,I19E,1.85
13,I19N,1.55
14,R41C,2.43
15,R41M,1.9
16,R41H,1.88
17,R41L,2.07
18,R9Y,1.95
19,R9V,1.75
20,R9A,1.91
21,R9D,1.36
22,R9Q,1.96
23,R9F,1.85
24,R9N,1.85

row,Variant,folding stability dG [kcal/mol]
1,R9G,1.31
2,E5V,1.73
3,E5Q,1.6
4,E5Y,2.2
5,E5A,1.74
6,E5N,1.83
7,R42N,1.84
8,R42G,1.88
9,R42V,1.95
10,R42Y,1.77
11,R42Q,2.09
12,R42T,1.83
13,R42F,1.77
14,R42C,1.95
15,R42W,1.74
16,R42A,2.11
17,L24H,1.75
18,L24D,0.729
19,L24I,1.69
20,L24W,1.26
21,L24S,1.67
22,L24K,2.14
23,L24R,1.95
24,L24F,1.64

row,Variant,folding stability dG [kcal/mol]
1,L24A,1.53
2,L24P,1.39
3,W8A,0.975
4,W8F,2.31
5,W8K,0.821
6,W8Y,1.72
7,W8P,1
8,W8E,0.744
9,W8Q,0.919
10,E30T,1.9
11,E30Q,1.94
12,E30Y,2.13
13,E30I,2.17
14,E30P,2.04
15,E30H,2.06
16,E30W,1.94
17,E30N,1.83
18,E30L,2.28
19,R35Q,2.14
20,R35I,1.66
21,R35M,2.2
22,R35T,1.5
23,R35D,1.49
